What all share (conditions): tags: His-MBP N-terminal (TEV added during purification)
Data set [1] addresses T1, CbAgo (Clostridium butyricum, UniProt P0DYD1 SEQ:1-748). Kind of data set: EMSA; DNA guide preloaded, 37 C; target printed as 7043 in text, 7023 in Table 2. How it is done: (§1) CbAgo (10 pmol) was pre-incubated with the desired polynucleotide guide (RNA guide: 7024, DNA guide: 3466, 10 pmol) for 5 min at 37° C. This was followed by addition of a target polynucleotide (RNA target: […]: 7043, 10 pmol) and another incubation step of 5 min at 37° C. The reactions were then resolved on a 6% Native PAGE gel and stained with SYBR gold.
(A gel shift assay detects complexes by their altered migration in electrophoresis.)

Data set [2] deals with T1, CbAgo. The data set can be described thus: EMSA; RNA guide, DNA target, 37 C; target printed as 7043 in text, 7023 in Table 2. How it is done:
as §1

The target of data set [3] is T1, CbAgo. Kind of data set: EMSA; DNA guide, RNA target, 37 C. As to the method: as §1
In data set [4] the target is T1, CbAgo. The data set can be described thus: EMSA; RNA guide, RNA target, 37 C. How it is done:
as §1

This is an account of results in patent publication US20190292537, “Prokaryotic Argonaute Proteins and Uses Thereof” (Wageningen Universiteit, published 2019).

B1: DNA guide 3466 ; DNA target 7023 (ssDNA ; ssDNA)
DNA 1: TGAGGTAGTAGGTTGTATAGT
DNA 2: AAACGACGGCCAGTGCCAAGCTTACTATACAACCTACTACCTCAT
modifications: 5'-phosphate ; 5'-phosphate
In the case of B1, the binding result in data set [1] is listed as “binds”.

B2: RNA guide 7024 ; DNA target 7023 (ssRNA ; ssDNA)
RNA: UGAGGUAGUAGGUUGUAUAGU
DNA: AAACGACGGCCAGTGCCAAGCTTACTATACAACCTACTACCTCAT
modifications: 5'-phosphate ; 5'-phosphate
With B2, the binding result in data set [2] was “binds”.

B3: DNA guide 3466 ; RNA target 7022 (ssDNA ; ssRNA)
DNA: TGAGGTAGTAGGTTGTATAGT
RNA: AAACGACGGCCAGUGCCAAGCUUACUAUACAACCUACUACCUCAU
modifications: 5'-phosphate ; 5'-phosphate
Consider B3, for which the binding result in data set [3] was “binds”.

B4: RNA guide 7024 ; RNA target 7022 (ssRNA ; ssRNA)
RNA 1: UGAGGUAGUAGGUUGUAUAGU
RNA 2: AAACGACGGCCAGUGCCAAGCUUACUAUACAACCUACUACCUCAU
modifications: 5'-phosphate ; 5'-phosphate
Take B4: the binding result in data set [4] was “binds”.
